Results: US20160024214A1 (Novo Nordisk, published 2016)
Several values for one entry are separate records, joined by “and”; a condition that tells them apart may be missing. Equal entries are not always repeated. Where two headings read alike, the source gives them in different places.

Key:
[1] = target: T1, human NKG2D (hNKG2D) on the cell surface (human, UniProt P26718 1-216); assay: flow cytometry, NKG2D-expressing cells; pre-incubation with 149810, then ON72 as competitor (post-incubation antibody)
T1 construct: BaF/3 cells co-transfected with full-length NKG2D and DAP10, or native receptor on human NK, CD8+ and gamma-delta T cells of PBMC / whole blood; also called cell-surface NKG2D; NKG2D/DAP10-expressing BaF/3 cells
T1 chain: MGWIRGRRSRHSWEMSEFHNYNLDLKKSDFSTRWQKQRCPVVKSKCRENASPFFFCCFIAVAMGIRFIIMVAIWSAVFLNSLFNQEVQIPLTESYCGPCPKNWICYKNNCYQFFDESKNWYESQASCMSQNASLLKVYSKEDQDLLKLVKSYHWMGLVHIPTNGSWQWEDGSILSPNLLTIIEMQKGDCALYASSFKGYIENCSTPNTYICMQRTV

[2] = target: T1, human NKG2D (hNKG2D) on the cell surface; assay: flow cytometry, NKG2D-expressing cells; 149810 first, then 16F16 as competitor
[3] = target: T1, human NKG2D (hNKG2D) on the cell surface; assay: flow cytometry, NKG2D/DAP10 BaF/3 cells, dose-response
[4] = target: T1, human NKG2D (hNKG2D) on the cell surface; assay: cell-based or functional assay
[5] = target: T1, human NKG2D (hNKG2D) on the cell surface; assay: flow cytometry, NKG2D/DAP10 BaF/3 cells; antibody pre-incubated, then 1 µg hFc-MICA as competitor
[6] = target: T1, human NKG2D (hNKG2D) on the cell surface; assay: flow cytometry, NKG2D-expressing cells; ON72 first, then 16F16 as competitor (FIG. 9A legend)
[7] = target: T1, human NKG2D (hNKG2D) on the cell surface; assay: flow cytometry, NKG2D-expressing cells; ON72 first, then 16F16 as competitor
[8] = target: recombinant NKG2D-Fc (R&D Systems) (human) (UniProt P26718); assay: SPR (Biacore), antibody over immobilised NKG2D-Fc, Langmuir fit
[9] = target: T1, human NKG2D (hNKG2D) on the cell surface; assay: flow cytometry, NKG2D/DAP10 BaF/3 cells; antibody pre-incubated, then 1 µg hFc-MICA as competitor
[10] = target: T2, soluble hNKG2D fragment (residues 81-216 of SEQ ID NO:2) (human, UniProt P26718 81-216); assay: complex purified by gel filtration; X-ray crystal structure 3.15 Å
T2 construct: Homodimer in the crystal with two hzON72 Fab molecules
T2 sequence: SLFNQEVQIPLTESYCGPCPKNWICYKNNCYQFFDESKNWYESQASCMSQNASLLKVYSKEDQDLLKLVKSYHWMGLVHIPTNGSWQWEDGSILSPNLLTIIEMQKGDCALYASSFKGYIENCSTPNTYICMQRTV

With “149810 (murine anti-hNKG2D antibody, R&D Systems)” the Inhibition (%) [1] was 85%, the % blockade of 16F16 binding [2] was 50% and the EC50 [3] was 0.063 µg/mL and 0.042 nM.

“ON72 (murine anti-hNKG2D antibody, Beckman Coulter)” gave a % proliferation of PBMC, stimulation CD3 0.1 + CD28 + ON72 (immobilized) [4] of 22.9%, a % proliferation of PBMC, stimulation CD3 0.1 + ON72 (immobilized) [4] of 7.12% and a % proliferation of PBMC, stimulation CD3 0.3 + CD28 + ON72 (immobilized) [4] of 40.1%. The % proliferation of PBMC, stimulation CD3 0.3 + ON72 (immobilized) [4] was 28.4%, the EC50 (µg/ml), inhibition of NK-cell killing of ULPB3-expressing target cells (51Cr release) [4] was 0.065 µg/mL and the down-modulation of cell-surface NKG2D, NKG2D/DAP10 BaF/3 cells, overnight, 1 µg [4] was 55%. It also gave an internalization of NKG2D at 1 h, NKG2D+ lymphocytes in whole blood, 0.1 µg/ml [4] of 50 to 75%, an internalization of NKG2D at 24 h, NKG2D+ lymphocytes in whole blood, 0.1 µg/ml [4] of 100% and an IC50 [5] of 0.019 µg/mL. It also gave a full blockade of 1 µg MICA-Fc [5] of 0.54 µg/mL, a % of 16F16 binding prevented [6] of 85% and a % of 16F16 binding blocked [7] of 82%. It also gave a Kd [8] of 170 pM, a koff [8] of 0.00011 s⁻¹ and a kon [8] of 960000 M⁻¹ s⁻¹. For the same molecule, the EC50 [3] was 0.062 µg/mL and 0.048 nM, the IC50 [9] was 20 pM and the full blockade of 1 µg MICA-Fc [9] was 0.24 nM.

B1: hzON72 Fab (humanized version of ON72 Fab fragment) (Fab, V domains shown)
VH: QVQLVQSGAEVKKPGASVKVSCKASGYTFTNYWMHWVRQAPGQGLEWMGEIDPSDIYTNYAQKFQGRVTMTRDTSTSTVYMELSSLRSEDTAVYYCARGIYDGYYVYGMDYWGQGTTVTVSS
VL: YIQMTQSPSSLSASVGDRVTITCRSSQDISNYLNWYQQKPGKAPKLLIYYTSRLHSGVPSRFSGSGSGTDFTFTISSLQPEDIATYYCQQGKTLPRTFGGGTKVEIKR
B1: binds [10].

B2: 16F16 (recombinantly expressed, IgG4 isotype) (antibody, V domains shown)
VH: EVQLVESGGGLVKPGGSLRLSCAASGFTFSSYSMNWVRQAPGKGLEWVSSITSSSSYIYYADSVKGRFTISRDNAKNSLYLQMNSLRAEDTAVYYCARDRRYFDWFPLDYRGQGTLVTVSS
VL: DIQMTQSPSSLSASVGDRVTITCRASQGISSWLAWYQQKPEKAPKSLIYAASSLQSGVPSRFSGSGSGTDFTLTISSLQPEDFATYYCQQYNGYPYTFGQGTKLEIKR
notes: Fully human anti-hNKG2D antibody from KM mouse hybridoma; variable regions cloned into human IgG4 framework, expressed in HEK293 cells, protein A purified; also called 16F16 IgG4; 16F16 (IgG4)
For B2, the EC50 [3] was 34 pM.
